Data taken from patent publication US20240117030A1 (Pfizer, published 2024).
Like-named read-outs stand apart in the source and are kept apart here.

T1: recombinant human IL-12 (human, UniProt P29459 23-219; P29460 23-328)
T1 sequence (looked up) 1: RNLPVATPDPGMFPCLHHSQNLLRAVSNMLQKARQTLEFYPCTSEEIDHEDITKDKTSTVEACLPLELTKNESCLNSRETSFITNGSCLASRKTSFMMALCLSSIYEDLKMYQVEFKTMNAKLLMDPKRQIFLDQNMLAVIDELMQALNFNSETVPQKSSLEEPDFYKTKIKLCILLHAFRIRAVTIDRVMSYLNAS
T1 sequence (looked up) 2: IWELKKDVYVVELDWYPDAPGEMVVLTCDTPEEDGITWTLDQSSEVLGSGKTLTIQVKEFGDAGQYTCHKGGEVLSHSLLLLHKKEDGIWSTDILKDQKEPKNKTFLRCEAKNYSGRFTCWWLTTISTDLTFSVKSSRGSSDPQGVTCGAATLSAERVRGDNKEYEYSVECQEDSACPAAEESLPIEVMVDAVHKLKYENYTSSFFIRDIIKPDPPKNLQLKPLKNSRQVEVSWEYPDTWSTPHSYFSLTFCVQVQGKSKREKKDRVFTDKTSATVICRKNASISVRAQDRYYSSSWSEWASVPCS

T2: recombinant human IL-23 (human, UniProt Q9NPF7 20-189; P29460 23-328)
T2 sequence (looked up) 1: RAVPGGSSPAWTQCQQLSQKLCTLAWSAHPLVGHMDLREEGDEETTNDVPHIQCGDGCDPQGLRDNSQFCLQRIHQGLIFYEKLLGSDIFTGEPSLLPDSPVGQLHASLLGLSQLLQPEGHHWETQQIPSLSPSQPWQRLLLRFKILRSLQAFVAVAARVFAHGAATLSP
T2 sequence (looked up) 2: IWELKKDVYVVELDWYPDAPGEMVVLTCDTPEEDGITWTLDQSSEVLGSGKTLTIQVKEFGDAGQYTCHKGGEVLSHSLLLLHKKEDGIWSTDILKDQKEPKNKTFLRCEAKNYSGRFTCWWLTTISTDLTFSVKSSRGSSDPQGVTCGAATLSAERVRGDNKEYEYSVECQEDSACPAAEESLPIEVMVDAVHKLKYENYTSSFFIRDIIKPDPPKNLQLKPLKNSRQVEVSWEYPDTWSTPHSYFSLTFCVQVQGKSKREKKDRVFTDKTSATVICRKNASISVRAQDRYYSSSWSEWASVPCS

T3: recombinant human IL-33 (R&D Systems 3625-IL), reduced with DTT (human, UniProt O95760 112-270, limits assumed)
T3 sequence (looked up): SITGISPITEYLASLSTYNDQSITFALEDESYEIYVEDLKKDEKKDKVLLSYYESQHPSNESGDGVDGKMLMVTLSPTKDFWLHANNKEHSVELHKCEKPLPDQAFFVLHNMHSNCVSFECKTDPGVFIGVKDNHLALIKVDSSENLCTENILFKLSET

T4: biotinylated human IL-33 wild-type (WT), reduced with 3 mM DTT (human, UniProt O95760 112-270, limits assumed, biotinylated (site not stated))
T4 sequence (looked up): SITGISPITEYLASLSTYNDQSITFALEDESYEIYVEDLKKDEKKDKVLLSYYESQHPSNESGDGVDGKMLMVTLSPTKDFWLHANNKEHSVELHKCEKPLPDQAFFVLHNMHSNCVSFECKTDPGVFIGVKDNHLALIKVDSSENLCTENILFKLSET


Key:
recombinant human IL-12 [1] = biological target: T1, recombinant human IL-12; test: cell-based or functional assay
recombinant human IL-23 [2] = biological target: T2, recombinant human IL-23; test: cell-based or functional assay
recombinant human IL-12 [3] = biological target: T1, recombinant human IL-12; test: cell-based or functional assay; remark: listed apart in the source
recombinant human IL-23 [4] = biological target: T2, recombinant human IL-23; test: cell-based or functional assay; remark: listed apart in the source
[5] = biological target: T3, recombinant human IL-33 (R&D Systems …); test: cell-based or functional assay
[6] = biological target: T4, biotinylated human IL-33 wild-type …; test: KinExA solution affinity, fixed antigen format, global fit
Description: Samples were prepared in PBS containing 0.1% sodium azide and 1.0 mg/mL bovine serum albumin (BSA). […] The fixed active binding concentrations (ABC) of biotinylated human IL 33 used were 10 pM and 100 pM. Biotinylated human IL-33 wild-type (WT) was reduced with 3 mM Dithiothreitol (DTT) for 2 hours at room temperature before use. The samples were allowed to equilibrate for at least 72 hours at room temperature before passing them through a flow cell that contained the test article anti-IL-33 antibody being evaluated adsorbed to polymethylmethacrylate (PMMA) beads (Sapidyne). […] Data analysis was performed with KinExA Pro software version 4.3.11 (Sapidyne). […] The ‘drift correction’ fitting option was used when responses varied between replicate injections. Two curves were obtained in independent experiments and analyzed using the ‘n-curve analysis’ tool to obtain global best fit values for the KD and active concentration of IL-33 cytokine. The software reports each best fit value along with a 95% confidence interval.

[7] = biological target: T3, recombinant human IL-33 (R&D Systems …); test: cell-based or functional assay; remark: listed apart in the source

IC50 (mean), Kit-225 assay, IL-12 induced phospho-STAT4 (recombinant human IL-12 [1]) | IC50 (mean), Whole blood assay, IL-12 induced phospho-STAT4 (recombinant human IL-12 [1]) | IC50 (mean), Kit-225 assay, IL-23 induced phospho-STAT3 (recombinant human IL-23 [2]) | IC50 (mean), Whole blood assay, IL-23 induced phospho-STAT3 (recombinant human IL-23 [2]) | IC50 (mean), Kit-225 assay, IL-12 induced phospho-STAT4 (recombinant human IL-12 [3]) | IC50 (mean), Whole blood assay, IL-12 induced phospho-STAT4 (recombinant human IL-12 [3]) | IC50 (mean), Kit-225 assay, IL-23 induced phospho-STAT3 (recombinant human IL-23 [4]) | IC50 (mean), Whole blood assay, IL-23 induced phospho-STAT3 (recombinant human IL-23 [4]) | IC50 [nM] versus reduced human IL-33 (R&D), IC50 (AVE) [5] | Kd [6] | IC50 [pM] versus human reduced IL-33 (R&D), Experiment 2 (HEK-Blue SEAP) [7] | Binder
0.155 nM | 0.262 nM | 0.85 nM | 4.51 nM | 0.155 nM | 0.262 nM | 0.85 nM | 4.51 nM | – | – | – | p40-0003 (antibody, human IgG1, kappa, V domains shown) VH: EVQLVQSGAEVKKPGESLKISCKGSGYSFTTYWLGWVRQMPGKGLDWIGIMSPVDSDIRYSPSFQGQVTMSVDKSITTAYLQWNSLKASDTAMYYCARRRPGQGYFDFWGQGTLVTVSS VL: DIQMTQSPSSLSASVGDRVTITCRASQGISSWLAWYQQKPEKAPKSLIYAASSLQSGVPSRFSGSGSGTDFTLTISSLQPEDFATYYCQQYNIYPYTFGQGTKLEIKR
– | – | – | – | – | – | – | – | 0.008 nM | < 0.000237 nM | 6 pM | IL33-0726 (antibody, human IgG1, kappa, V domains shown, also called IL33-0726 IgG; IL13433-0726) VH: EVQLVESGGGLVQPGGSLRLSCAASGFTFSSYWMYWVRQAPGKGLEWVAAITPNAGEDYYPESVKGRFTISRDNAKNSLYLQMNSLRAEDTAVYYCARGQYYYTKYSLGYWGQGTLVTVSS VL: DIQMTQSPSSLSASVGDRVTITCRASQPIHNHLDWYQQKPGKAPKLLIYFGKNLQEGVPSRFSGSGSGTDFTLTISSLQPEDFATYYCFQYKKGWSFGGGTKVEIKR
